This note sets out measurements from FireProtDB (doi:10.1021/bi052621g).

Values joined by “and” are separate entries in the source; they are usually repeats but may differ in a detail not shown here. Equal entries are not always repeated.

For the data set the following is noted: Sus scrofa, pH 7, Thermal, Hepes 20 mM, reversible: No, whole UniProt chain shown.

B1: Major seminal plasma glycoprotein PSP-I wild type, P35495 (protein)
chain: MKLGSAIPWALLFSTATLISTGWGLDYHACGGRLTDDYGTIFTYKGPKTECVWTLQVDPKYKLLVSIPTLNLTCGKEYVEILEGAPGSKSLGKFCEGLSILNRGSSGMTVKYKRDSGHPASPYEIIFLRDSQG
Broadly, the Tm is the temperature at the midpoint of the melting transition. As for B1, for the setting “DSC, ZnCl2 5 mM”, the Tm worked out at 51.1 °C and the “unfolding enthalpy (calorimetric)” value was found to be 17.4 kcal/mol. For the same protein, the “unfolding enthalpy (calorimetric)” value (DSC) is 18.4 kcal/mol and 20.8 kcal/mol.

B2: Major seminal plasma glycoprotein PSP-II wild type, P35496 (protein)
chain: MKLGTAIPWALLLSTATLVSTARINGPDECGRVIKDTSGSISNTDRQKNLCTWTILMKPDQKVRMAIPYLNLACGKEYVEVFDGLLSGPSYGKLCAGAAIVFLSTANTMTIKYNRISGNSSSPFLIYFYGSSPGSEY
On to B2, for which the Tm (CD) was found to be 52.6 °C.
